Blank lines part the entries; values can stand above or below the binder they belong to.
Tests used:
[1] = biological target: T1, native FcγRIIB, membrane-bound, endogenously expressed on human cells (Raji, Daudi, PBMC) (human, UniProt P31994 43-310); experiment: cell-based or functional assay
T1 sequence (looked up): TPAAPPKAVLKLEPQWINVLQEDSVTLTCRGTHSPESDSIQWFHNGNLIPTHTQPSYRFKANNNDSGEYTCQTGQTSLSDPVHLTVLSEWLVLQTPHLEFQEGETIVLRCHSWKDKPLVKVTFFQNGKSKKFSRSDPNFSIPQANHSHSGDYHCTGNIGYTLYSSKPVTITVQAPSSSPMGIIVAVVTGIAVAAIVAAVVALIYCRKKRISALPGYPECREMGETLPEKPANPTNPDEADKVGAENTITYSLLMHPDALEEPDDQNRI

[2] = biological target: T2, native FcγRIIA expressed on K562 cells (human, UniProt P12318 34-317); experiment: flow cytometry on K562 cells
T2 construct: whole, on cells
T2 sequence (looked up): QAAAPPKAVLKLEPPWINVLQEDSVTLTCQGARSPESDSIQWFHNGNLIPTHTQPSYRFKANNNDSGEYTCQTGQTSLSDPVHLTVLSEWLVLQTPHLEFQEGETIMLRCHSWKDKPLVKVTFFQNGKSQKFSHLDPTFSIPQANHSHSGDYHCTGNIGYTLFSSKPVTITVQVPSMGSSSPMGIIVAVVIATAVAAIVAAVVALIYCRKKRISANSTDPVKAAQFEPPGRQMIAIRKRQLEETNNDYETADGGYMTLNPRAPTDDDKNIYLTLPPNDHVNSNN
Procedure: FIG. 5: Binding of 15 μg/ml antibody (hu8A6_VH+hu8A6_VL and ch8A6_N297A) to native FcγRIIA expressed on K562 cells.
Raji and K562 cells were incubated with increasing concentrations of humanized antibodies and the chimeric antibody as control. Raji cells were used to test binding on FcγRIIB (FIG. 4), K562 cells to analyze unspecific binding to FcγRIIA (FIG. 5). Cell bound antibodies were detected with PE-conjugated secondary antibody.

[3] = biological target: T3, recombinant soluble human FcγRIIB (human, UniProt P31994 43-217); experiment: ELISA, sFcγRIIB coated on plates, hybridoma supernatant
T3 construct: also called sFcγRIIB
T3 sequence: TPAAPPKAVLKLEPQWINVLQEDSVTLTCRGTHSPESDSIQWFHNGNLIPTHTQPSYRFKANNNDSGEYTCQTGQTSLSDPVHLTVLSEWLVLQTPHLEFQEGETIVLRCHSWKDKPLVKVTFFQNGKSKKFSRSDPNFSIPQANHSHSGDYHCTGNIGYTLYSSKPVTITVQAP

- maximum fold phospho-signal of the FcγRIIB ITIM against untreated cells, densitometry of Western blot, Daudi cells [1]: 2.8 fold
B1: chGB3_N297A (chimeric GB3, prior art antibody of WO 2005/051999, N297A format) (antibody, V domains shown)
VH: VQLQQSGPELVKPGASVKISCKASGYTFTDYYIYWVKQWPGQGLEWIGWIFPGTGNTYYNENFKDKATLTIDRSSSTAYMLLGSLTSEDSAVYFCYGPFAYWGQ
VL: RIQLTQSPSSLSASLGERVSLTCRASQEISGYLSWLQQKPDGTIKRLIYATSALDSGVPKRFSGSGSGSNYSLTISSLESEDFADYYCLQYANYPYTFGGGTKL

- binding result [2]: no binding (tested: 15 µg/ml)
B2: ch8A6_N297A (chimeric 8A6, rat variable regions, human IgG1 N297A constant region, human kappa) (antibody)
heavy: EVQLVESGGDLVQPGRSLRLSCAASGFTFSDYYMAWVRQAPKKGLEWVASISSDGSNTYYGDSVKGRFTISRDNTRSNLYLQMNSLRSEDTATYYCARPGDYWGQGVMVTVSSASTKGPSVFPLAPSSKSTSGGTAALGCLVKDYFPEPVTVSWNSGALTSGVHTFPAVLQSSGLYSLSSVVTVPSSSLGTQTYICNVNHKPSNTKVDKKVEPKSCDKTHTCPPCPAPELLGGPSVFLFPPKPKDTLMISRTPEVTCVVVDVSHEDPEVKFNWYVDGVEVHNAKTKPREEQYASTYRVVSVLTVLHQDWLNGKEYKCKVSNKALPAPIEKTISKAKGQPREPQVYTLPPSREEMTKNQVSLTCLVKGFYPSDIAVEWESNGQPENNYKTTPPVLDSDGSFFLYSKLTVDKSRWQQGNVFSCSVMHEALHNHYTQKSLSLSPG
light: NIVMTQSPTSMFISVGDRVTMNCKASQNVGTYVDWFQQKTGQSPTLLIFGASNRYTGVPDRFTGSGSGTDFTLSISNMQAEDLAVYYCLQYNYHPYTFGPGTTLELKRTVAAPSVFIFPPSDEQLKSGTASVVCLLNNFYPREAKVQWKVDNALQSGNSQESVTEQDSKDSTYSLSSTLTLSKADYEKHKVYACEVTHQGLSSPVTKSFNRGEC
notes: also called chimeric 8A6_N297A

- binding result [3]: binds
B3: monoclonal antibody 8A6 (rat IgG2a) (antibody, V domains shown)
VH: EVQLVESGGDLVQPGRSLRLSCAASGFTFSDYYMAWVRQAPKKGLEWVASISSDGSNTYYGDSVKGRFTISRDNTRSNLYLQMNSLRSEDTATYYCARPGDYWGQGVMVTVSS
VL: NIVMTQSPTSMFISVGDRVTMNCKASQNVGTYVDWFQQKTGQSPTLLIFGASNRYTGVPDRFTGSGSGTDFTLSISNMQAEDLAVYYCLQYNYHPYTFGPGTTLELKR
notes: Rat IgG2a from hybridoma supernatant; also called mAb 8A6; rat antibody 8A6
